In article PMC2275160:
Where a chain is given by its changes, count along the chain named.

Assays:
Experiment in all cases: EMSA
[1] = molecular target: T1, His6-Glis3(ZFD)4m (mouse, UniProt Q6XP49 345-496, C444A)
T1 sequence: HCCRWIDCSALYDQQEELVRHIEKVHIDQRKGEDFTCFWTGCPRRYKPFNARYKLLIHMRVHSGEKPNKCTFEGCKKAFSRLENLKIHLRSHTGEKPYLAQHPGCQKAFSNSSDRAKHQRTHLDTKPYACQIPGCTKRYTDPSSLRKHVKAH

[2] = molecular target: T2, His6-Glis3(ZFD)1m (mouse, UniProt Q6XP49 345-496, C347A)
T2 sequence: T1 sequence with C3A, A100C

[3] = molecular target: T3, His6-Glis3(ZFD)2m (mouse, UniProt Q6XP49 345-496, C381A)
T3 sequence: T1 sequence with C37A, A100C

[4] = molecular target: T4, His6-Glis3(ZFD)3m (mouse, UniProt Q6XP49 345-496, C414A)
T4 sequence: T1 sequence with C70A, A100C

[5] = molecular target: T5, His6-Glis3(ZFD)5m (mouse, UniProt Q6XP49 345-496, C474A)
T5 sequence: T1 sequence with A100C, C130A

[6] = molecular target: T6, His6-Glis3(ZFD) (mouse, UniProt Q6XP49 345-496)
T6 sequence: T1 sequence with A100C

B1: Glis-BS consensus (dsDNA)
DNA 1: CGTGGGGGGTC
DNA 2: GACCCCCCACG
no binding: binding result [1] | binding result [2] | binding result [3] | binding result [4] | binding result [5]
3.69 ± 0.26 nM: Kd [6]
